# B1: CPEB3 Ribozyme (parent)
# chain: GGGGGCCACAGCAGAAGCGUUCACGUCGCGGCCCCUGUCAGAUUCUGGUGAAUCUGCGAAUUCUGCUGU
# Variants of: B1
# Assay: self-cleavage, relative activity (ratio to wild type); higher = more cleavage; co-transcriptional
row,Variant,self-cleavage
1,U20C A23U,0.257
2,U20C A23C,0.243
3,U20A U46G,0.128
4,U20A U46A,0.216
5,U20A U46C,0.0817
6,U20A C35G,0.183
7,U20A C35A,0.115
8,G19U G47U,0.64
9,U20C G30U,0.153
10,U20C G30C,0.178
11,U20C U67A,0.233
12,U20C U67G,0.164
13,U20C U61C,0.182
14,U20C U61A,0.236
15,U20C G65A,0.141
16,U20A C39A,0.169
17,U20A C39U,0.125
18,G19U U43G,0.223
19,G19U U43A,0.202
20,G19U U43C,0.333
21,U20C U69C,0.427
22,U20C U69A,0.124
23,U20A G65U,0.19
24,U20A G65C,0.113

row,Variant,self-cleavage
1,U20G A42G,0.079
2,U20G A42U,0.216
3,U20G A42C,0.279
4,U20G C24G,0.146
5,U20G C24U,0.144
6,G19U U20A,0.0978
7,G19U U20C,0.166
8,U20A C22A,0.152
9,U20A C22G,0.119
10,U20A C22U,0.176
11,U20C A40G,0.212
12,U20G C33A,0.135
13,U20G C33G,0.261
14,G19U G31A,0.258
15,G19U G31U,0.168
16,G19U G31C,0.163
17,U20G A59U,0.176
18,U20G A59G,0.204
19,G19U U44G,0.398
20,G19U U44A,0.354
21,U20A G37C,0.156
22,U20A G37A,0.13
23,U20A G58A,0.208
24,U20A G58U,0.152

row,Variant,self-cleavage
1,G19U U67C,0.461
2,G19U U67A,0.479
3,G19U U67G,0.546
4,U20A G56A,0.184
5,U20A G56C,0.113
6,U20A G56U,0.217
7,U20C G56A,0.223
8,G19U U21C,0.218
9,G19U U61C,0.194
10,G19U U61G,0.262
11,G19U U61A,0.217
12,G19U C57U,0.21
13,G19U C57G,0.218
14,U20A U43G,0.123
15,U20A U43C,0.154
16,G19U G41C,0.16
17,G19U G41A,0.181
18,G19U G41U,0.157
19,U20C C39G,0.201
20,U20C C39U,0.176
21,U20C C39A,0.224
22,G19U G50C,0.458
23,G19U G50A,0.543
24,G19U C32G,0.157

row,Variant,self-cleavage
1,G19U C32A,0.281
2,G19U G65U,0.148
3,G19U G65A,0.254
4,G19U G65C,0.287
5,U20C C57G,0.261
6,G19U C63A,0.179
7,G19U C22G,0.164
8,G19U C22U,0.107
9,G19U C22A,0.14
10,U20A G41C,0.133
11,U20C A51G,0.272
12,U20A A52G,0.117
13,U20A A52C,0.0922
14,U20A A52U,0.143
15,U20C C35U,0.145
16,U20C C35G,0.129
17,U20C C35A,0.169
18,G19U G30U,0.166
19,G19U G30A,0.143
20,U20A U38G,0.23
21,U20G A40G,0.169
22,U20G A40U,0.134
23,U20G A40C,0.243
24,U20G A23U,0.243

row,Variant,self-cleavage
1,U20G A23C,0.196
2,U20G A23G,0.32
3,U20C U64G,0.104
4,U20C U64A,0.167
5,U20C U64C,0.278
6,U20A G25A,0.198
7,U20A G25C,0.165
8,U20A G25U,0.135
9,G19U G56A,0.301
10,G19U G56C,0.222
11,U20A C54U,0.124
12,U20A C54G,0.194
13,U20G C32A,0.218
14,U20G C32U,0.157
15,U20C U53C,0.161
16,U20C G37A,0.102
17,U20C G37U,0.114
18,U20C C29A,0.227
19,U20C C29U,0.128
20,U20A U62A,0.0929
21,G19U C33U,0.519
22,G19U C33G,0.203
23,G19U C33A,0.101
24,U20G C27U,0.0848

row,Variant,self-cleavage
1,U20C U44A,0.185
2,U20A A23C,0.149
3,U20A U61A,0.123
4,U20A U61G,0.137
5,U20A U61C,0.137
6,U20C G47U,0.239
7,U20C G47A,0.243
8,U20C G47C,0.188
9,U20C C45A,0.219
10,U20C C45U,0.201
11,U20C C45G,0.217
12,U20C U36A,0.125
13,U20C G31U,0.204
14,U20C G31A,0.261
15,U20C G31C,0.148
16,U20G A51G,0.193
17,U20A U26G,0.182
18,U20A U26C,0.106
19,G19U C29G,0.175
20,G19U C29A,0.161
21,U20A U21C,0.0963
22,U20G C34U,0.268
23,U20G C34G,0.28
24,U20A U67C,0.127

row,Variant,self-cleavage
1,U20A U67G,0.271
2,U20C C33A,0.286
3,U20C C33G,0.113
4,U20C C33U,0.219
5,U20C A52U,0.109
6,U20C A52C,0.181
7,U20A A60C,0.114
8,U20A A60G,0.146
9,U20C C34G,0.139
10,U20C C34U,0.13
11,U20C C34A,0.176
12,U20C U21A,0.208
13,U20C C22U,0.229
14,U20C C22G,0.214
15,G19U G28A,0.122
16,G19U G28U,0.116
17,U20G C22A,0.249
18,U20G C22G,0.192
19,G19U G48U,0.681
20,U20C U26C,0.235
21,U20C U26A,0.205
22,U20C U26G,0.114
23,U20C G58A,0.161
24,U20C G58U,0.204

row,Variant,self-cleavage
1,U20C G58C,0.147
2,U20C G50U,0.245
3,U20C A59C,0.124
4,U20C A59U,0.15
5,U20C A59G,0.277
6,U20C U38A,0.181
7,U20C U38C,0.212
8,U20C U38G,0.24
9,U20A A40G,0.11
10,G19U C39G,0.264
11,G19U C39U,0.22
12,G19U C39A,0.188
13,G19U C45G,0.4
14,G19U C45U,0.469
15,U20C A42G,0.161
16,U20C C27G,0.136
17,U20C C27U,0.114
18,U20A C29A,0.194
19,U20A C29G,0.157
20,U20A C29U,0.155
21,G19U C35G,0.199
22,G19U U69A,0.739
23,G19U U69C,0.925
24,G19U U62C,0.256

row,Variant,self-cleavage
1,G19U U62G,0.251
2,G19U U62A,0.244
3,U20C U49C,0.214
4,U20C U49G,0.231
5,U20C U49A,0.137
6,G19U U26C,0.256
7,G19U U26A,0.272
8,G19U U26G,0.256
9,U20C U46C,0.257
10,U20C U46A,0.262
11,U20C U46G,0.275
12,U20A C24A,0.203
13,U20A C24U,0.0896
14,G19U U49C,0.594
15,G19U U49G,0.459
16,G19U U46A,0.591
17,G19U U46C,0.499
18,G19U U46G,0.596
19,G19U U38G,0.201
20,G19U U38A,0.227
21,U20A U44A,0.15
22,U20A U44G,0.204
23,U20A U44C,0.139
24,U20A C34U,0.0989

row,Variant,self-cleavage
1,U20A C34G,0.196
2,U20A C34A,0.196
3,G19U C24G,0.121
4,U20G,0.207
5,U20C,0.222
6,U20A,0.157
7,G19U U64A,0.233
8,G19U U64C,0.249
9,G19U U64G,0.192
10,U20A G30A,0.192
11,U20A G30C,0.141
12,U20A G30U,0.109
13,U20A G31C,0.0954
14,U20A G31U,0.17
15,U20A G31A,0.135
16,G19U U36G,0.222
17,U20A U53G,0.136
18,U20A U53C,0.154
19,U20A U53A,0.0892
20,U20A G47A,0.176
21,U20C A60C,0.142
22,U20C A60G,0.166
23,U20C A60U,0.208
24,U20A A51C,0.151

row,Variant,self-cleavage
1,U20A A51G,0.186
2,U20A A51U,0.153
3,U20A G48A,0.124
4,U20C C54U,0.182
5,U20C C54G,0.206
6,U20C U55A,0.175
7,U20A U49A,0.125
8,U20G C39G,0.23
9,U20G C39A,0.169
10,U20G C39U,0.0993
11,G19U G37A,0.19
12,G19U G37U,0.199
13,G19U G37C,0.175
14,G19U C27A,0.947
15,G19U C27G,0.82
16,U20A C45U,0.144
17,U20C U62C,0.204
18,U20C G41U,0.137
19,U20C G41A,0.247
20,U20C G41C,0.139
21,U20G A60U,0.073
22,U20G A60G,0.0625
23,U20G A60C,0.191
24,U20G C35G,0.184

row,Variant,self-cleavage
1,U20G C35A,0.218
2,U20G C35U,0.171
3,U20C C63U,0.229
4,U20C C63A,0.138
5,U20C C63G,0.162
6,U20A A59C,0.0876
7,U20A A59G,0.125
8,U20A U69G,0.282
9,U20A U69C,0.225
10,U20A A42G,0.0639
11,U20A A42C,0.0988
12,U20A U55A,0.237
13,U20A U55C,0.118
14,U20A U55G,0.112
15,U20G C29G,0.128
16,U20G C29A,0.198
17,U20C G68A,0.336
18,U20A C66G,0.133
19,U20A C66U,0.205
20,U20A C66A,0.154
21,U20A C32U,0.148
22,U20A C32A,0.153
23,U20A C32G,0.171
24,U20A G28U,0.182

row,Variant,self-cleavage
1,U20A G28C,0.14
2,U20A G28A,0.12
3,G19U C54A,0.182
4,G19U C54G,0.317
5,G19U C54U,0.625
6,G19U C66G,0.27
7,G19U C66A,0.271
8,U20A C63G,0.13
9,U20A C63A,0.129
10,U20A U64A,0.326
11,U20A U64G,0.11
12,U20A U64C,0.122
13,U20C G48U,0.242
14,U20C G48A,0.189
15,U20C C32A,0.192
16,G19U U55C,0.191
17,U20G A52G,0.292
18,U20G A52U,0.183
19,U20G A52C,0.148
20,U20A C57A,0.195
21,U20A C57G,0.092
22,U20A C57U,0.152
23,U20A C27U,0.149
24,U20A C27G,0.152

row,Variant,self-cleavage
1,U20C G28C,0.133
2,U20C G28A,0.117
3,U20C G25A,0.68
4,U20C G25U,0.616
5,U20C G25C,0.249
6,U20A G68C,0.253
7,U20A G68A,0.196
8,U20A G68U,0.142
9,G19U G58U,0.553
10,G19U G58A,0.352
11,U20A U36C,0.149
12,U20A U36G,0.201
13,U20A G50C,0.188
14,U20A G50U,0.141
15,U20C U43C,0.212
16,U20C C66A,0.204
17,U20C C66U,0.272
18,G19U G25C,0.122
19,G19U G25U,0.14
20,G19U G25A,0.177
21,G19U G68C,0.791
22,G19U G68U,0.738

# Reference: the RNAGym collection of RNA variant scans (doi:10.7554/elife.80360)
